In patent US20150204870A1 one finds S/N Ratio data, which are given here for 6 substances.

SNA (natural lectin, not treated with PNGaseF), sequence (Q41358 29-289): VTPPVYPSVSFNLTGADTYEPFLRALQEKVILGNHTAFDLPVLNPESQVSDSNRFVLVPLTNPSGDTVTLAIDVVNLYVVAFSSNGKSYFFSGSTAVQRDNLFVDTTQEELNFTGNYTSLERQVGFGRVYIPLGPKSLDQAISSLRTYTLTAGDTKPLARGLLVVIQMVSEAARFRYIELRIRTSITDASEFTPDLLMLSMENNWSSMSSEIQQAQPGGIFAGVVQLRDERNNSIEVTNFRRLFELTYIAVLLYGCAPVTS
SNA (natural lectin, not treated with PNGaseF), sequence (Q41358 309-570): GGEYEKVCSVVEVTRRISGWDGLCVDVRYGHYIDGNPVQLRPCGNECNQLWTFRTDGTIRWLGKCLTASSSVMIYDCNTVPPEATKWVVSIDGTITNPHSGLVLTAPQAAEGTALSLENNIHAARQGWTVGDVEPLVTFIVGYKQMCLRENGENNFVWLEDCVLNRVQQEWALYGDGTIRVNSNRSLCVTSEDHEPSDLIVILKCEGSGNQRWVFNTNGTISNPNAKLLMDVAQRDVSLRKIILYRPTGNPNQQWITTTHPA
SNA treated with PNGaseF (sugar chain-removed natural lectin), sequence (Q41358 29-289): as the sequence (Q41358 29-289) above
SNA treated with PNGaseF (sugar chain-removed natural lectin), sequence (Q41358 309-570): as the sequence (Q41358 309-570) above

The assay has as its target thyroglobulin.
As for “SNA (natural lectin, not treated with PNGaseF)”, the S/N Ratio turned out to be 1.5.
Next, “SSA treated with PNGaseF (sugar chain-removed natural lectin)”: 8.
Next, “MCA treated with PNGaseF (sugar chain-removed natural lectin)”: 6.5; “SSA (natural lectin, not treated with PNGaseF)”: 1.9; “MCA (natural lectin, not treated with PNGaseF)”: 3.1.
On to “SNA treated with PNGaseF (sugar chain-removed natural lectin)”, for which the S/N Ratio is 6.
